Test: label from the status in PepcDB records

MKFVKASLYLSIALAISACGEQVSVESHLENAKSYLNENKVNESIIELKNAIRADTKNAEARFLLGQIYLSLGDGLAAVKELERAQSLKYPDNKVLPLLARAYILTDSDSDVIALSTAAKGLAAEERSQYLAYQTLAALRSEQPDLAKQSVELAQSIAQQSLYSMLASAYLQLSENKYDEVKTLISRILTIEAKQVDALMLQGQVAMVTEEYQLAVDSFKQYMELQPRFSMVELLLANALLKAGHDEEAEQHADAILAKVNNQPFANYIKAMVRFQAKDFDKASEHAEAALSADFNQFNLKLVAGASAFYLKNWQQSYHHLSAIVKYLPNDHQARRMLAVTQLELGLIDEISATIGDFDGNDEVNSQFLSSLSYKLLELGATTEAKKLLAQNGQNSSKNAAHNARQGILKLMMNDPSGIENLQDAVKLNPELIEAELAIAFSALQRGDIAKANAIAEKWQKQYPDKASSFNLLASIAIKEGKYDKAEQALKKSLSLEQDNFFALTEQLRIARKQENIPLSKQRADYLITIAPTNNKVLRQYFGVYRNEMALAKLTAAYELDKTDINKAILLSEAMVSLGQLKQAESILVSIADTAKLPKRYWQLLLLTYKKQKNFEKIRPTLEKWLKENPYHIEAVVLLTDFYASQRNYERALTVIKRGLDNHKDNLVLQLVQMQLLLNNKQISPAKSLYKIIENKNINDALKQGLLGRIYLLEEDYVQALPKLTVFYQTYPSSQNAIYLAGAHLGNKDNAKAVKVLEHYLTIDANNNRIETMLAGIYLENDSDKAIAVYDDVVKKQPKNVVAHNNLAWLYLEQDNISKALEHAEKALELAPQIANIVDTYAKVLLGSGDKRAALQYASKASEIAKGKDVDIQLNYVEALIANNRINEAKDLLAKVATATDEQKNKKSKLLAQL
protein production: failed

DYPIMIICPGGGFTYHSGREEAPIATRMMAAGMHTVVLNYQLIVGDQSVYPWALQQLGATIDWITTQASAHHVDCQRIILAGFSAGGHVVATYNGVATQPELRTRYHLDHYQGQHAAIILGYPVIDLTAGFPTTSAARNQITTDARLWAAQRLVTPASKPAFVWQTATDESVPPINSLKYVQAMLQHQVATAYHLFGSGIHGLALANHVTQKPGKDKYLNDQAAIWPQLALRWLQE
protein production: failed

MELPSFIFQAQENLVERPWGGEWIALLKGFRQSGIGESWEFSAHTSRPSTVLVKGQQLSMIELFSKHRDELLGRAAEKFSKFPILVRLIDAASPTQVHVHPSDKAAESLGEAEGGVESAWLVFNKGKAYAGFKEDVKIEELEEKLKEEDFDFKTLLNTFETTPYDTFVIRPGIPHAGEGLRVLEVSSNSTLAYFFNENDWEKVKKVLNTKKVEEFEVKGKKGMAETENFGLEVVDVTGTAEIKTGGVMNILYAAEGYFILRGKETADLHRGYSCLVPASTDSFTVESERGKIVRIYLKV
protein production: not failed

MATLNKALTRPAAIAGIPIVPFVIVSGAIVLLSVYLSYYLVLLLIPAWLEMKAKARTDIHYFGLLWLAFKTRGRFATNKYFGANAMLANRYDAVDVSEFIEKMKLNERVTLDKHIPYSSHVHPQVIRNRHGDLVSTWELGGTVFECEDEHHLTLMATHLNNVIRSYEGLPITFYLHRIREKYQDAFAASSGIPFSDDVTALYYQPIKEKPLWRHRLFFTLCYAPFSRLEKKAMKAQPSGKRTAALDGALKVMLEHRAALASALSRYTATPLGVYEENGRVYSSQLSFYHRLLTGQWQKVAVTRSPFYDILSTPDVFFTTDTAECQTVSGSRFFRSLEIKDYSPDTATGLLDALLYAESEYVMTQSFTCMARDEAQNHIRLAEKRLNSAADDAISQREELIVLRDLLQSGHVSCGKYHFSLLVSSDSADQVVKDVNALAQPFADLGIMTTLSTLSLPAAYLAQLPGVYTLRPRLVAVSSQNFADMASLHNFHPHKRNGNPWGEAITIMTSPGGGGYYLNLHDSQAGRDDFNEKTPGNTAIIGKTGSGKTMLMTVMQQLMQKYRNPATFSESAPHKRLSTVYFDKDRAAEMAIRQMGGRYFRLRTGVPTGFNPFALAPTKRNISFIKRLVRMLCRRNSKPLDPRDEERISTAVDTIMLDYPPEYRRYGITRLLEVLPEPPTKEARTNGLRIRLKQWAQGGEFGWVFDNETDTFDISDIDNVGIDGTEFLDDDDIRGPITFYLLYRVTGLLDGRRLVMFMDEFWKWLADVEFSRFSLNMLKVIRKLNGIFIPATQSPDEIVRHPIAPAIIEQCGTQIFLANPKASRADYVEKMKVPDSVYDIVRHLDPGERYMVVLKTPLRAGETRPFVSMAKMDLSGLGKITRMLSGSEDNLKLFDALYQEGMQPDDWKDAFLEIAL
protein production: failed

MITIEISINLELIISFYLLFILGANNVANAIGTAYASRATTYRNLLILFSISVIIGSLFAKNVGSTVNSLSSDALTALIISALVMTLSTYKKVPISLHTVIICSLIGLNFNSSNLYVFGEILLSWILSPIIAVVIAYILYSAYEKIDISILKKITMIRYFLLISAAVVAFNLGSNDLPTVLGTFTTSQIIYIIGAIFLCLGAYLYGNRVSETLSMITNLSVSSAFIAQLSGGLAVTIFTALGMPVSTTQAIVGGILGVGLTKGIKTVRWKVLKNIIFWWVVAPIIALIIGFIINRMI
protein production: failed

MCRTRPSCGRMEEKRPVDAAGAVALIGIAALLAFNQVVIKVTGGGFGPLFQAGLRSALGLVFVLIWMRLLRKPIVFPRAALMGALITGLLFTVEFMALFAALDLTSVSRVSILFYSMPVWLALGGHFLLPGERLSGMRVLGLMLAMGGVVLALLERDAAHVSLLGDALAVFAAMCWAAIALGVRLTPLGRVPAEMQLMSQLVISAPLLLVLAPLTGETLRTPGLLHWAGLLFQAVGVVGLGFLIWFRLLAVYRANGVASFSFLSPVLAVILGWLLLGEQVGPLVWLALGLVAAGIVLINRR
protein production: failed

MGPVPIKLALVIPNYNHSAAISQALSELAALNLPCYLIDDGSNDETRYLLQSLAEQHDWVTLLQHPYNRGKGAAVMTGLRSAYRDGFTHALQVDADGQHNLSDIPAMLAKAQAKPDALISGKPEYDKSVPKGRLYGRYLTHFWVWVETLSFDIQDSMCGFRVYPLAATERLFSKQALTERMDFDIEILVKLYWQGVEILFHPTKVIYPENGVSHFQCVADNVRISKLHTRLFFGMLKRLPQLLRRKQAAKSTSSAHTATHWSAMKERGSYWGIKLLVESYRFGGHWLCRAIMYPVICYFFLTGKVSREASRDFLRRVQHLEPQHPQLNQPVGWRDSLNHFIAFGNAALDRIDAWCDRIQLSQVDFPDRQVLADQLESGKGAVLLVSHLGNLELCRAISIHQRKVKVNVMVLTSHAENFNNVLKQLNPNSSLNLIQVTELNPATSMLLQQKIEDGELVVIAGDRTSSHAQGRVVYAPFMGQDAAFPQGPFILAGLLDCPVYLMFCLREQGRYRVHLERFAETLKGPRAGRMERLQQAVYRYSERLEHYARREPLQWFNFFDFWRDDNQVNRATSAHKTTAALPEQERTTDRTEHLLEHHHHHH
protein production: not failed

MSMLGIKWKLHGNGKSIRPGHVVAPDERLAWPLTIGIGMQHVVAMFGATFLVPIITGMPPATTLLFSGIGTLLFLVITKGRVPSYLGSSFAFIAPIMASQQQYGVSGALGGVVLAGVVLALIGAVVQKFGAEWINRLMPPIVTGAIVALIGLNLAPAAKANFDAAPVTALITLVTIILVSVLFRGILGRLSILVGVVVGYLVAMMRGEVSYEKMDAAAWVGLPLFQTPEFHIGVVGLFVPVVLVLVAENVGHVKSVAAMTGQNLDGVSGRALMADGAATVLAGFGGGSGTTTYAENIGVMAATKVYSTAAYWVAGVFAILLSFSPKFGELIATVPPGVLGGAATMLYGMIGVLGVKIWVQNKVNFSNPINLTTAAVALIIGIADYAWTIGELKFTGIALGSAAALVIYHGMKGLAHWRGTVAEPETETAGLPPAVKSAMNAAAKRGGKKGK
protein production: failed

SLMAGSFCWRMLGLVSKVGNRARCFSSVAASEEELLDFSGSELQFNSCSLHLSLHPFFNFLLGIHSCFVCKESKTDVKRCVVTQCGKFYHEACVKKYPLTVFESRGFRCPLHSCVSCHASNPSNPRPSKGKMMRCVRCPVAYHSGDACLAAGCSVIASNSIICTAHFTARKGKRHHAHVNVSWCFVCSKGGSLLCCESCPAAFHPDCLNIEMPDGSWFCNDCRAGKKLHFQDIIWVKLGNYRWWPAEVCHPKNVPPNIQKMKHEIGEFPVFFFGSKDYYWTHQARVFPYMEGDRGSRYQGVRGIGRVFKNALQEAEARFREIKLQREARETQESERKPPPYKHIKVNKPYGKVQIYTADISEIPKCNCKPTDENPCGFDSECLNRMLMFECHPQVCPAGEFCQNQCFTKRQYPETKIIKTDGKGWGLVAKRDIRKGEFVNEYVGELIDEEECMARIKHAHENDITHFYMLTIDKDRIIDAGPKGNYSRFMNHSCQPNCETLKWTVNGDTRVGLFAVCDIPAGTELTFNYNLDCLGNEKTVCRCGASNCSGFLGDRPKTSTTLSSEEKGKKTKKKTRRRRAKGEGKRQSEDECFRCGDGGQLVLCDRKFCTKAYHLSCLGLGKRPFGKWECPWHHCDVCGKPSTSFCHLCPNSFCKEHQDGTAFSCTPDGRSYCCEHDLGAASVRSTKTEKPPPEPGKPKGKRRRRRGWRRVTEGK
protein production: not failed

MQTESNPLAERFIARNLLDLAIRITLIGGLTVWCYRVAEPFIGMLLWSIILAVTLAPLHMRLTRLLGARPRLAAVVLTLATMLVLLVPGAMLTASLGDSLVNIFHHSTGRIVRIPAPPDFVIELPLIGVRLHEIWLQAMTNLQDVLKPLQPHLATAGRWLLAGMASAGLGIAVFLASIAIAGVILVYADPAKRAAHAIGVRIAGPEQGVALAQLTAATIRAVAQGVIGVALIQAVLAGLGFLLAGVPAAGLWAIVALLICIVQLPLFLLMVPMVVYVFLNNTPTVAAVFAVWCLLVSLCDNVLKPLMLARGVDIPIPVILIGALGGVLAAGIVGLFLGSVGFGLGYVLFMQWVRQQSPAG
protein production: failed

MVFVWFIVAAIVTILTAIKLSNYADTIGEKSTLGGMLVGTIFLAGATSLPEITTTVSAIVLNNPDLAVGNVLGSNMFNLLILATLDLYFRRAQLFRGADTSHFFTASIGLLLAMVTLIAITLRLDVTLLGIGIDMLVLIVVYAFGMKLLSAVRNDPVPESQTIDQEDNRPVKKDVSLRHAMIGFAISAIVIMGAGTLLTVTGDEIAVVTGLGSSFVGSFLIAATTSLPEGVSVFVALRLKNINLALGSVLGSNLFNFLILGVSDILYRPGSIIAAISPVHQLTAAAVGILCLMTLYALLRPAEQSKRMYLMPSLVLIVFYFFSSYLIFVQ
protein production: failed

MNTIIRYASLWGLCAALTLAQTPSKTPDEIKQILNNYSHKNLKLIDPPTSSLEATPSFLSSPKETATTINQEIAKYHEKSDKAALGLYELLKGATTNLSLQAQELSVKQAMKNHTIAKAMFLPTLNASYNFKNEARDTPEYKHYNTQQLQAQVTLNVFNGFSDVNNVKEKSATYRSNVANLEYSRQSVYLQVVQQYYEYFNNLARMIALQKKLEQIKTDIKRVTKLYDKGLTTIDDLQSLKAQGNLSEYDILDMQFALEQNRLTLEYLTNLSVKNLKKTTIDAPNLQLRERQDLVSLREQISAIRYQNKQLNYYPKIDVFDSWLFWIQKPAYATGRFGNFYPGQQNTAGVTATLNIFDDIGLSLQKQSIMLGQLANEKNLAYKKLEQEKDEQLYRKSLDIARAKIESSKASLDAANLSFANIKRKYDANLVDFTTYLRGLTTRFDAEVAYNLALNNYEVQKANYIFNSGHKIDDYVH
protein production: failed

MLKSILKVAVISTIGLSTVACTVNDQRIARYGVGGAAIGALAGTAIAGSTPEAALTGAAVGAIAGSVTGAAVNQQRQQRQRQQRQIVAPHPAMCTYRNRKGQVYSAPCAQKVQTPQLCTYRDGRGVMYQAPCPQRVR
protein production: failed

PIGKSADNMYSYLALVQDDPTVQVVNMAQKAYVEHYIQGDPDLAKLPVLSAAAPFKVGGRKNDPASFVEVEKGQLTFRNAADLYLYPNTLVVMKVSGKEVKEWLECSAGQFNQIDPASSKPQSLINWDGFRTYNFDVIDGVNYQIDVTQPARYDGECQMIHPQAERIKHLTFNGKPVDPQATFLVATNNYRAYGGKFAGTGESHIAFASPDENRSVLAAWIGAQSKKEGAIHPAADNNWRLAPIHSN
protein production: failed

MKLKYCHYAYDDEGYVIHMLTSNERTFFTNAYIIETKNSIVVVDTLMVNSDAILLRQYMDNINKPLIAVIITHGHPDHYNGTEIITGFKEVPIISTKGIRDCIQDTVDSKEVKWKPYFGQDWPEHKILPNQLVIDSEVVNLDGLDYSFRDLGAAESSSDLFFTLGEKRSVIFVGDVVFNNMHGFMNDGNSAQWLKVLQKLLTEIADVKLLFTGHGDPGDTHQLVQRQIDYISHYRSNLLAIIRGNQLEHHHHHH
protein production: failed
